Legend:
target cells in vitro = details: cited from earlier work
[1] = tested on: human colon carcinoma LS174T; set-up: species or system nude mice; details: mouse, in vivo
Description: The following figures (FIGS. 2 to 6) illustrate the biodistribution of carboxypeptidase G2 conjugated to PEG in nude mice bearing the human colon carcinoma LS174T. The mice were injected intravenously with the specified amount of enzyme (measured as enzyme units) using 4 mice per time point. Mice were killed at 24 h, 48 h, and 72 h after injection, in some cases at 96 h and 120 h. CPG2 activity in plasma was measured by spectrophotometric assay using methotrexate as the substrate. CPG2 activity in tumour and other tissues was measured by HPLC using methotrexate as the substrate.
The biodistribution of native CPG2 and PEG-CPG2 at 72 hours is illustrated in FIGS. 7 and 8.
FIG. 4(a). Biodistribution of CPG2 activity following use of galactosylated SB43 (clearing antibody). Mice were given CPG2 conjugated to PEG 2000 mwt, average 22 mols PEG per molecule of CPG2, at time 0. Galactosylated monoclonal antibody SB43 was given 19, 20 and 21 hrs later by IP route. The mice were killed at 24 h post CPG2.
In relation to FIG. 4(a) and 4(b) these show good tumour to normal tissue concentration and ratios following use of the clearing antibody. However, it is not possible to administer the clearing antibody as efficiently in the mouse as in the human patient.
I have investigated PEG (mol wt 5000) in the range of 13-32 PEG molecules per enzyme molecule (CPG2, mol wt 83,000); the higher the molecular weight the higher and more prolonged is the plasma concentration of enzyme achieved. The higher the plasma concentration the higher tumour concentration in the tumour model LS174T. Since one objective is to get as much enzyme into the tumour as possible and prolong the period for which an effective concentration of enzyme is sustained in the tumour the conjugate giving the highest concentration of enzyme in blood is preferred. However, the choice of conjugate also has to take account of the need to clear enzyme from blood after the desired concentration of enzyme has been achieved in the tumour(s) and before prodrug is given. A conjugate which is difficult to clear from blood would be disadvantageous so that compromise between these two requirements may be necessary.
Thus, PEG with a molecular weight of 2000 in the range 20 to 40 PEG molecules per molecule of enzyme is preferred, giving a total molecular weight in the range of around 130-160 kDal, but associated water of hydration gives a molecular size equivalent to molecules of much greater weight.

LS174T tumours = assay: Tumour growth delay in the LS174T tumour model (MDEPT therapy); type: in vivo, nude mice; details: with CPG2 clearance antibody SB43 and the phenol prodrug (25 mg/kg i.p., 3 doses)
Description: FIG. 6. Nude mice bearing LS174T tumours were given 25 enzyme units of CPG2-PEG (22 PEG molecules, PEG 5000) followed at 20 hr, 23 h, 26 h by galactosylated SB43. At 48 h post CPG2-PEG they received 25 mg/kg of a phenol prodrug (4-[N,N-bis(2-chloroethyl)amino]-phenoxycarbonyl-L-glutamic acid) intraperiotoneally, repeated to a total of 3 doses at 1 hr intervals.
FIG. 6. Nude mice bearing LS174T tumours were given 25 enzyme units of CPG2-PEG (22 PEG molecules, PEG 5000) followed at 20 hr, 23 h, 26 h by galactosylated SB43. At 48 h post CPG2-PEG they received 25 mg/kg of a phenol prodrug intraperiotoneally, repeated to a total of 3 doses at 1 hr intervals.

CC(NC(=O)C(CCC(=O)O)NC(=O)c1ccc(N(C)Cc2cnc3nc(N)nc(N)c3n2)cc1)C(=O)O (stereo not drawn) [Alanine methotrexate]
toxicity relative to native methotrexate (fold less) (target cells in vitro): 50-100 fold

B1: Native ^125I-CPG2: bacterial enzyme carboxypeptidase G2, not conjugated to PEG (protein, UniProt P06621 23-415, looked up)
Carboxypeptidase G2: ALAQKRDNVLFQAATDEQPAVIKTLEKLVNIETGTGDAEGIAAAGNFLEAELKNLGFTVTRSKSAGLVVGDNIVGKIKGRGGKNLLLMSHMDTVYLKGILAKAPFRVEGDKAYGPGIADDKGGNAVILHTLKLLKEYGVRDYGTITVLFNTDEEKGSFGSRDLIQEEAKLADYVLSFEPTSAGDEKLSLGTSGIAYVQVNITGKASHAGAAPELGVNALVEASDLVLRTMNIDDKAKNLRFNWTIAKAGNVSNIIPASATLNADVRYARNEDFDAAMKTLEERAQQKKLPEADVKVIVTRGRPAFNAGEGGKKLVDKAVAYYKEAGGTLGVEERTGGGTDAAYAALSGKPVIESLGLPGFGYHSDKAEYVDISAIPRRLYMAARLIMDLGAGK
modifications: 125I label
notes: bacterial enzyme carboxypeptidase G2, not conjugated to PEG
clearance from blood, tumour and normal tissues [1]: clears rapidly

B2: PEG 2000: CPG2 conjugated to PEG 2000 mwt (average 22-27 PEG molecules per CPG2) (conjugate, UniProt P06621 23-415, looked up)
Carboxypeptidase G2: ALAQKRDNVLFQAATDEQPAVIKTLEKLVNIETGTGDAEGIAAAGNFLEAELKNLGFTVTRSKSAGLVVGDNIVGKIKGRGGKNLLLMSHMDTVYLKGILAKAPFRVEGDKAYGPGIADDKGGNAVILHTLKLLKEYGVRDYGTITVLFNTDEEKGSFGSRDLIQEEAKLADYVLSFEPTSAGDEKLSLGTSGIAYVQVNITGKASHAGAAPELGVNALVEASDLVLRTMNIDDKAKNLRFNWTIAKAGNVSNIIPASATLNADVRYARNEDFDAAMKTLEERAQQKKLPEADVKVIVTRGRPAFNAGEGGKKLVDKAVAYYKEAGGTLGVEERTGGGTDAAYAALSGKPVIESLGLPGFGYHSDKAEYVDISAIPRRLYMAARLIMDLGAGK
modifications: PEG 2000, 22-27 per molecule
plasma levels compared with PEG 5000 [1]: lower
tumour concentrations of enzyme compared with PEG 5000 [1]: similar

B3: PEG 5000 at 22 PEGs per CPG2: CPG2 conjugated to PEG 5000, 22 PEG molecules per CPG2 (conjugate, UniProt P06621 23-415, looked up)
Carboxypeptidase G2: ALAQKRDNVLFQAATDEQPAVIKTLEKLVNIETGTGDAEGIAAAGNFLEAELKNLGFTVTRSKSAGLVVGDNIVGKIKGRGGKNLLLMSHMDTVYLKGILAKAPFRVEGDKAYGPGIADDKGGNAVILHTLKLLKEYGVRDYGTITVLFNTDEEKGSFGSRDLIQEEAKLADYVLSFEPTSAGDEKLSLGTSGIAYVQVNITGKASHAGAAPELGVNALVEASDLVLRTMNIDDKAKNLRFNWTIAKAGNVSNIIPASATLNADVRYARNEDFDAAMKTLEERAQQKKLPEADVKVIVTRGRPAFNAGEGGKKLVDKAVAYYKEAGGTLGVEERTGGGTDAAYAALSGKPVIESLGLPGFGYHSDKAEYVDISAIPRRLYMAARLIMDLGAGK
modifications: PEG 5000, 22 per molecule
notes: CPG2 conjugated to PEG 5000, 22 PEG molecules per CPG2
tumour growth delay compared to untreated controls (LS174T tumours): significant growth delay

B4: PEG (5000) 32-CPG2: CPG2 conjugated to PEG 5000 mwt, average 32 PEG molecules per molecule of CPG2 (conjugate, UniProt P06621 23-415, looked up)
Carboxypeptidase G2: ALAQKRDNVLFQAATDEQPAVIKTLEKLVNIETGTGDAEGIAAAGNFLEAELKNLGFTVTRSKSAGLVVGDNIVGKIKGRGGKNLLLMSHMDTVYLKGILAKAPFRVEGDKAYGPGIADDKGGNAVILHTLKLLKEYGVRDYGTITVLFNTDEEKGSFGSRDLIQEEAKLADYVLSFEPTSAGDEKLSLGTSGIAYVQVNITGKASHAGAAPELGVNALVEASDLVLRTMNIDDKAKNLRFNWTIAKAGNVSNIIPASATLNADVRYARNEDFDAAMKTLEERAQQKKLPEADVKVIVTRGRPAFNAGEGGKKLVDKAVAYYKEAGGTLGVEERTGGGTDAAYAALSGKPVIESLGLPGFGYHSDKAEYVDISAIPRRLYMAARLIMDLGAGK
modifications: PEG 5000, 32 per molecule
notes: CPG2 conjugated to PEG 5000 mwt, average 32 PEG molecules per molecule of CPG2
plasma concentration of enzyme [1]: high and persistent

Source: patent US20020127229A1, “Tumour therapy” (priority 1996, published 2002)
